According to patent US20210246166A1 (Bayer, published 2021):
Blank lines part the entries; values can stand above or below the binder they belong to. Numbered stars: 1 amine (or outer) side, 2 acyl side, 3 side chain; on linkers, the order of the positions; unused ones are H or OH. Bridge positions count the residues as written; N and C are the ends. Square brackets hold non-standard residues; d marks the D form. Ends that are not written are not given here. * marks the point of attachment. Leu(4-F) = 4-fluoroleucine, CC(C)(F)C[C@H](N[*:1])C(=O)[*:2]; Piperidin‑4‑ylacetic acid = O=C(CC1CCNCC1)*; Pro(4-spirocPr) = O=C(O)[C@@H]1CC2(CC2)CN1; Oic = O=C(O)[C@@H]1C[C@@H]2CCCC[C@@H]2N1; NMeI = CC[C@H](C)[C@H](NC)C(=O)O; tBuAla = CC(C)(C)C[C@H](N)C(=O)O; Chg = N[C@H](C(=O)O)C1CCCCC1; Pen = CC(C)(S)[C@H](N)C(=O)O; NMePro = CN1CCC[C@H]1C(=O)*; NMeC = CN[C@@H](CS)C(=O)O; NMeA = CN[C@@H](C)C(=O)O; Ahx = NCCCCCC(=O)O; Sar = CNCC(=O)O

Key:
[1] = target: T1, Recombinant human MASP1 enzyme (fragment corresponding to amino acids 297-699, C-terminal His Tag) (human, UniProt P48740 297-699); test: cell-based or functional assay
T1 sequence: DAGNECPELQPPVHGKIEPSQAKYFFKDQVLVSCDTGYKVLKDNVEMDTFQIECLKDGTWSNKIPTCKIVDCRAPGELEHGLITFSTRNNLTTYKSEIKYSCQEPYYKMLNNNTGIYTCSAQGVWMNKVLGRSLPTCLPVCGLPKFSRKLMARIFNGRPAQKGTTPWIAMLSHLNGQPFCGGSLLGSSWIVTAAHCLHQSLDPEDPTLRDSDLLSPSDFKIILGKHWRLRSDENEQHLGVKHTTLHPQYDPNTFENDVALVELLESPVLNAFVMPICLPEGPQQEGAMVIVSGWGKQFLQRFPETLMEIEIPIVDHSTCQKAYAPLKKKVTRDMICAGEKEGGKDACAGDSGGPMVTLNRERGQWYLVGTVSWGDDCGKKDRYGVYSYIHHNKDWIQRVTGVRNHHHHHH

[2] = target: Recombinant human MASP2 enzyme (fragment corresponding to amino acids 297-686, C-terminal His Tag) (human, UniProt O00187 297-686); test: cell-based or functional assay
Chain of Recombinant human MASP2 enzyme (fragment corresponding to amino acids 297-686, C-terminal His Tag) (O00187 other isoform, or with tags, fused parts or gaps limits assumed): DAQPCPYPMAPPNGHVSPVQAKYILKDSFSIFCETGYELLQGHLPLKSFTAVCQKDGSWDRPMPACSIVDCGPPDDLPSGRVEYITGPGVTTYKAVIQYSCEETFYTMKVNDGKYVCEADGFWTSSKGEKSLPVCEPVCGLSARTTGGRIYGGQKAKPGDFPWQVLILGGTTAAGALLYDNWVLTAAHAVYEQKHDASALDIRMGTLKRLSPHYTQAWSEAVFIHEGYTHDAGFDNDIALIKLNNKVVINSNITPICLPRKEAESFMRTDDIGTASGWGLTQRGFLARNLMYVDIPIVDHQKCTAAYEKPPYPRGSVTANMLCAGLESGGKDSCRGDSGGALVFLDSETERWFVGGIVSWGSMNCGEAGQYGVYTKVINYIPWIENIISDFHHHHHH

human MASP1 IC50 [1]: 9.3 nM
human MASP2 IC50 [2]: 260 nM
B1: ((N-Me)P)-IC+SRS-((tBu)A)-PPIC+IPD-NH2 (peptide)
peptide: [NMePro]ICSRS[tBuAla]PPICIPD-NH2
modifications: disulfide 3-11
SMILES: CC[C@H](C)[C@H](NC(=O)[C@@H]1CCCN1C)C(=O)N[C@H]1CSSC[C@@H](C(=O)N[C@H](C(=O)N2CCC[C@H]2C(=O)N[C@@H](CC(=O)O)C(N)=O)[C@@H](C)CC)NC(=O)[C@H]([C@@H](C)CC)NC(=O)[C@@H]2CCCN2C(=O)[C@@H]2CCCN2C(=O)[C@H](CC(C)(C)C)NC(=O)[C@H](CO)NC(=O)[C@H](CCCNC(=N)N)NC(=O)[C@H](CO)NC1=O

human MASP1 IC50 [1]: 10 nM
human MASP2 IC50 [2]: 620 nM
B2: IC+SRS-((tBu)A)-PP-I-((N-Me)C)+IPD-NH2 (peptide)
peptide: ICSRS[tBuAla]PPI[NMeC]IPD-NH2
modifications: disulfide 2-10; N-terminus assumed
SMILES: CC[C@H](C)[C@H](N)C(=O)N[C@H]1CSSC[C@@H](C(=O)N[C@H](C(=O)N2CCC[C@H]2C(=O)N[C@@H](CC(=O)O)C(N)=O)[C@@H](C)CC)N(C)C(=O)[C@H]([C@@H](C)CC)NC(=O)[C@@H]2CCCN2C(=O)[C@@H]2CCCN2C(=O)[C@H](CC(C)(C)C)NC(=O)[C@H](CO)NC(=O)[C@H](CCCNC(=N)N)NC(=O)[C@H](CO)NC1=O

human MASP1 IC50 [1]: 8.5 nM
human MASP2 IC50 [2]: 33 nM
B3: AIC+SRSLP-((6S)-5-Azaspiro[2.4]heptane-6-carboxylic acid)-IC+IPD-NH2 (peptide)
peptide: AICSRSLP[Pro(4-spirocPr)]ICIPD-NH2
modifications: disulfide 3-11; N-terminus assumed
SMILES: CC[C@H](C)[C@H](NC(=O)[C@H](C)N)C(=O)N[C@H]1CSSC[C@@H](C(=O)N[C@H](C(=O)N2CCC[C@H]2C(=O)N[C@@H](CC(=O)O)C(N)=O)[C@@H](C)CC)NC(=O)[C@H]([C@@H](C)CC)NC(=O)[C@@H]2CC3(CC3)CN2C(=O)[C@@H]2CCCN2C(=O)[C@H](CC(C)C)NC(=O)[C@H](CO)NC(=O)[C@H](CCCNC(=N)N)NC(=O)[C@H](CO)NC1=O

human MASP1 IC50 [1]: 10 nM
human MASP2 IC50 [2]: 110 nM
B4: kIC+SRS-((tBu)A)-PPI-(Pen)+I-NH2 (peptide)
peptide: [dK]ICSRS[tBuAla]PPI[Pen]I-NH2
modifications: disulfide 3-11; N-terminus assumed
SMILES: CC[C@H](C)[C@H](NC(=O)[C@H]1NC(=O)[C@H]([C@@H](C)CC)NC(=O)[C@@H]2CCCN2C(=O)[C@@H]2CCCN2C(=O)[C@H](CC(C)(C)C)NC(=O)[C@H](CO)NC(=O)[C@H](CCCNC(=N)N)NC(=O)[C@H](CO)NC(=O)[C@@H](NC(=O)[C@@H](NC(=O)[C@H](N)CCCCN)[C@@H](C)CC)CSSC1(C)C)C(N)=O

human MASP1 IC50 [1]: 10 nM
human MASP2 IC50 [2]: 400 nM
B5: IC+SRS-((tBu)A)-PPI-(Pen)+IP-OH (peptide)
peptide: ICSRS[tBuAla]PPI[Pen]IP-OH
modifications: disulfide 2-10; N-terminus assumed
SMILES: CC[C@H](C)[C@H](N)C(=O)N[C@H]1CSSC(C)(C)[C@@H](C(=O)N[C@H](C(=O)N2CCC[C@H]2C(=O)O)[C@@H](C)CC)NC(=O)[C@H]([C@@H](C)CC)NC(=O)[C@@H]2CCCN2C(=O)[C@@H]2CCCN2C(=O)[C@H](CC(C)(C)C)NC(=O)[C@H](CO)NC(=O)[C@H](CCCNC(=N)N)NC(=O)[C@H](CO)NC1=O

human MASP1 IC50 [1]: 9.5 nM
human MASP2 IC50 [2]: 440 nM
B6: ((N-Me)A)-IC+SRS-((tBu)A)-PPIC+IPD-NH2 (peptide)
peptide: [NMeA]ICSRS[tBuAla]PPICIPD-NH2
modifications: disulfide 3-11; N-terminus assumed
SMILES: CC[C@H](C)[C@H](NC(=O)[C@H](C)NC)C(=O)N[C@H]1CSSC[C@@H](C(=O)N[C@H](C(=O)N2CCC[C@H]2C(=O)N[C@@H](CC(=O)O)C(N)=O)[C@@H](C)CC)NC(=O)[C@H]([C@@H](C)CC)NC(=O)[C@@H]2CCCN2C(=O)[C@@H]2CCCN2C(=O)[C@H](CC(C)(C)C)NC(=O)[C@H](CO)NC(=O)[C@H](CCCNC(=N)N)NC(=O)[C@H](CO)NC1=O

human MASP1 IC50 [1]: 9.9 nM
human MASP2 IC50 [2]: 16 nM
B7: (Ahx)-IC+SRS-((tBu)A)-PPI-(Pen)+IP-NH2 (peptide)
peptide: [Ahx]ICSRS[tBuAla]PPI[Pen]IP-NH2
modifications: disulfide 3-11; N-terminus assumed
SMILES: CC[C@H](C)[C@H](NC(=O)CCCCCN)C(=O)N[C@H]1CSSC(C)(C)[C@@H](C(=O)N[C@H](C(=O)N2CCC[C@H]2C(N)=O)[C@@H](C)CC)NC(=O)[C@H]([C@@H](C)CC)NC(=O)[C@@H]2CCCN2C(=O)[C@@H]2CCCN2C(=O)[C@H](CC(C)(C)C)NC(=O)[C@H](CO)NC(=O)[C@H](CCCNC(=N)N)NC(=O)[C@H](CO)NC1=O

human MASP1 IC50 [1]: 1.4 nM
human MASP2 IC50 [2]: 37 nM
B8: ((N-Me)G)-IC+SRSLP-(Oic)-I-(Pen)+IP-NH2 (Acetate) (peptide)
peptide: [Sar]ICSRSLP[Oic]I[Pen]IP-NH2
modifications: disulfide 3-11; also: acetate salt

human MASP1 IC50 [1]: 9.4 nM
human MASP2 IC50 [2]: 480 nM
B9: AIC+SRSNPPI-(Pen)+IPD-NH2 (peptide)
peptide: AICSRSNPPI[Pen]IPD-NH2
modifications: disulfide 3-11; N-terminus assumed
SMILES: CC[C@H](C)[C@H](NC(=O)[C@H](C)N)C(=O)N[C@H]1CSSC(C)(C)[C@@H](C(=O)N[C@H](C(=O)N2CCC[C@H]2C(=O)N[C@@H](CC(=O)O)C(N)=O)[C@@H](C)CC)NC(=O)[C@H]([C@@H](C)CC)NC(=O)[C@@H]2CCCN2C(=O)[C@@H]2CCCN2C(=O)[C@H](CC(N)=O)NC(=O)[C@H](CO)NC(=O)[C@H](CCCNC(=N)N)NC(=O)[C@H](CO)NC1=O

human MASP1 IC50 [1]: 8.8 nM
human MASP2 IC50 [2]: 2600 nM
B10: ((N-Me)G)-IC+SRS-((tBu)A)-PPIC+IPD-OH (peptide)
peptide: [Sar]ICSRS[tBuAla]PPICIPD-OH
modifications: disulfide 3-11; N-terminus assumed
SMILES: CC[C@H](C)[C@H](NC(=O)CNC)C(=O)N[C@H]1CSSC[C@@H](C(=O)N[C@H](C(=O)N2CCC[C@H]2C(=O)N[C@@H](CC(=O)O)C(=O)O)[C@@H](C)CC)NC(=O)[C@H]([C@@H](C)CC)NC(=O)[C@@H]2CCCN2C(=O)[C@@H]2CCCN2C(=O)[C@H](CC(C)(C)C)NC(=O)[C@H](CO)NC(=O)[C@H](CCCNC(=N)N)NC(=O)[C@H](CO)NC1=O

human MASP1 IC50 [1]: 9.8 nM
human MASP2 IC50 [2]: 73.5 nM
B11: AIC+SRSLPP-(Chg)-C+IPD-NH2 (peptide)
peptide: AICSRSLPP[Chg]CIPD-NH2
modifications: disulfide 3-11; N-terminus assumed
SMILES: CC[C@H](C)[C@H](NC(=O)[C@H](C)N)C(=O)N[C@H]1CSSC[C@@H](C(=O)N[C@H](C(=O)N2CCC[C@H]2C(=O)N[C@@H](CC(=O)O)C(N)=O)[C@@H](C)CC)NC(=O)[C@H](C2CCCCC2)NC(=O)[C@@H]2CCCN2C(=O)[C@@H]2CCCN2C(=O)[C@H](CC(C)C)NC(=O)[C@H](CO)NC(=O)[C@H](CCCNC(=N)N)NC(=O)[C@H](CO)NC1=O

human MASP1 IC50 [1]: 10.1 nM
human MASP2 IC50 [2]: 2700 nM
B12: A-((N-Me)I)-C+SRSLPPIC+IPD-NH2 (peptide)
peptide: A[NMeI]CSRSLPPICIPD-NH2
modifications: disulfide 3-11; N-terminus assumed
SMILES: CC[C@H](C)[C@@H]1NC(=O)[C@@H]2CCCN2C(=O)[C@@H]2CCCN2C(=O)[C@H](CC(C)C)NC(=O)[C@H](CO)NC(=O)[C@H](CCCNC(=N)N)NC(=O)[C@H](CO)NC(=O)[C@@H](NC(=O)[C@H]([C@@H](C)CC)N(C)C(=O)[C@H](C)N)CSSC[C@@H](C(=O)N[C@H](C(=O)N2CCC[C@H]2C(=O)N[C@@H](CC(=O)O)C(N)=O)[C@@H](C)CC)NC1=O

human MASP1 IC50 [1]: 8.9 nM
human MASP2 IC50 [2]: 92 nM
B13: AIC+SRSLPP-(Chg)-C+I-NH2 (peptide)
peptide: AICSRSLPP[Chg]CI-NH2
modifications: disulfide 3-11; N-terminus assumed
SMILES: CC[C@H](C)[C@H](NC(=O)[C@@H]1CSSC[C@H](NC(=O)[C@@H](NC(=O)[C@H](C)N)[C@@H](C)CC)C(=O)N[C@@H](CO)C(=O)N[C@@H](CCCNC(=N)N)C(=O)N[C@@H](CO)C(=O)N[C@@H](CC(C)C)C(=O)N2CCC[C@H]2C(=O)N2CCC[C@H]2C(=O)N[C@@H](C2CCCCC2)C(=O)N1)C(N)=O

human MASP1 IC50 [1]: 10 nM
human MASP2 IC50 [2]: 32 nM
B14: (Piperidin-4-ylacetic acid)-IC+SRS-((tBu)A)-PPI-((N-Me)C)+I-NH2 (peptide)
peptide: {Piperidin‑4‑ylacetic acid}-ICSRS[tBuAla]PPI[NMeC]I-NH2
modifications: disulfide 2-10
SMILES: CC[C@H](C)[C@H](NC(=O)[C@@H]1CSSC[C@H](NC(=O)[C@@H](NC(=O)CC2CCNCC2)[C@@H](C)CC)C(=O)N[C@@H](CO)C(=O)N[C@@H](CCCNC(=N)N)C(=O)N[C@@H](CO)C(=O)N[C@@H](CC(C)(C)C)C(=O)N2CCC[C@H]2C(=O)N2CCC[C@H]2C(=O)N[C@@H]([C@@H](C)CC)C(=O)N1C)C(N)=O

human MASP1 IC50 [1]: 8.9 nM
human MASP2 IC50 [2]: 300 nM
B15: AIC+SRS-((4-Fluoro)L)-PPIC+IPD-NH2 (peptide)
peptide: AICSRS[Leu(4-F)]PPICIPD-NH2
modifications: disulfide 3-11; N-terminus assumed
SMILES: CC[C@H](C)[C@H](NC(=O)[C@H](C)N)C(=O)N[C@H]1CSSC[C@@H](C(=O)N[C@H](C(=O)N2CCC[C@H]2C(=O)N[C@@H](CC(=O)O)C(N)=O)[C@@H](C)CC)NC(=O)[C@H]([C@@H](C)CC)NC(=O)[C@@H]2CCCN2C(=O)[C@@H]2CCCN2C(=O)[C@H](CC(C)(C)F)NC(=O)[C@H](CO)NC(=O)[C@H](CCCNC(=N)N)NC(=O)[C@H](CO)NC1=O
